According to IntAct's records for PubMed 7538907:

B1: Tumor necrosis factor receptor superfamily member 6 (Homo sapiens), P25445 (parent)
chain: MLGIWTLLPLVLTSVARLSSKSVNAQVTDINSKGLELRKTVTTVETQNLEGLHHDGQFCHKPCPPGERKARDCTVNGDEPDCVPCQEGKEYTDKAHFSSKCRRCRLCDEGHGLEVEINCTRTQNTKCRCKPNFFCNSTVCEHCDPCTKCEHGIIKECTLTSNTKCKEEGSRSNLGWLCLLLLPIPLIVWVKRKEVQKTCRKHRKENQGSHESPTLNPETVAINLSDVDLSKYITTIAGVMTLSQVKGFVRKNGVNEAKIDEIKNDNVQDTAEQKVQLLRNWHQLHGKKEAYDTLIKDLKKANLCTLAEKIQTIILKDITSDSENSNFRNEIQSLV
B2: FAS-associated death domain protein (Homo sapiens), Q13158 (parent)
chain: MDPFLVLLHSVSSSLSSSELTELKFLCLGRVGKRKLERVQSGLDLFSMLLEQNDLEPGHTELLRELLASLRRHDLLRRVDDFEAGAAAGAAPGEEDLCAAFNVICDNVGKDWRRLARQLKVSDTKIDSIEDRYPRNLTERVRESLRIWKNTEKENATVAHLVGALRSCQMNLVADLVQEVQQARDLQNRSGAMSPMSWNSDASTSEAS

Variants of: B1
Details: with fadd_human FADD

Variant	effect of a mutation on the interaction
V254N	decreasing interaction

Variants of: B2
Details: with tnr6_human FAS

Variant	effect of a mutation on the interaction
V121N	decreasing interaction
